Assay results reported in patent US10098865B2, “Multi-arm polymeric prodrug conjugates of taxane-based compounds” (Nektar Therapeutics, priority 2010, dated 2018).

Experiment: Maximum Tolerated Dose (MTD) study of d9-docetaxel conjugates in athymic mice
Format: in vivo, female athymic nu/nu mice
Conditions: for MTD (maximum tolerated dose), estimated: athymic nu/nu mice, qwk×3, iv, dose refers to d9-docetaxel content; for Body Weight Nadir / Body Weight Nadir (day): day of nadir / Treatment-Related Deaths: female athymic nu/nu mice, qwk x 3
Protocol: MTD for 4-arm-PEG20K-CM-glycine-d9-docetaxel and 4-arm-PEG20K-BA-d9-docetaxel were determined in female athymic nu/nu mice using standard methods. For all test compounds, the dose refers to the d9-docetaxel content. d9-Docetaxel solutions were prepared in D5W containing 7.5% Tween 80:7.5% ethanol. PEG-d9-docetaxel conjugates were prepared in D5W. The administration volume for all test articles was 10 mL/kg. Mice were observed daily for clinical signs and body weights were recorded on days 1-5 and then biweekly until the end of study. Any individual animal with a single observation of greater than 30% body weight loss or three consecutive measurements of greater than 25% body weight loss was euthanized. For any group with two measurements of mean body weight loss of greater than 20%, dosing was stopped and recovery was allowed. Within a group with greater than 20% mean weight loss, individual animals greater than 30% body weight loss were euthanized. Compound dosing was terminated for any group in which mean weight loss exceeded 20% or >10% of animals died. Moribund animals were euthanized and all animals were euthanized at end of study.

[1] = 7.5 mg/kg (d9-docetaxel content) iv
[2] = 15 mg/kg (d9-docetaxel content) iv
[3] = 30 mg/kg (d9-docetaxel content) iv
[4] = N=5, 7.5 mg/kg (d9-docetaxel content) iv
[5] = N=5, 15 mg/kg (d9-docetaxel content) iv
[6] = N=5, 30 mg/kg (d9-docetaxel content) iv

Molecule	MTD (maximum tolerated dose), estimated [mg/kg]	Body Weight Nadir [1] [%]	Body Weight Nadir (day): day of nadir [1] [days]	Body Weight Nadir [2] [%]	Body Weight Nadir (day): day of nadir [2] [days]	Body Weight Nadir [3] [%]	Body Weight Nadir (day): day of nadir [3] [days]	Treatment-Related Deaths [4]	Treatment-Related Deaths [5]	Treatment-Related Deaths [6]	Body Weight Nadir (25 mg/kg iv) [%]	Body Weight Nadir (day): day of nadir (25 mg/kg iv) [days]	Treatment-Related Deaths (N=5, 25 mg/kg iv)
4-ARM-PEG20K-Glycinate-Linked d9-Docetaxel Conjugate [4ARM-PEG20K-CM-GLY-d9-DOC]	20	−1.6	2	−4.2	10	−25.2	21	0	0	0	–	–	–
[2H]C([2H])([2H])C(OC(=O)N[C@@H](c1ccccc1)[C@@H](O)C(=O)O[C@H]1C[C@@]2(O)[C@@H](OC(=O)c3ccccc3)C3C(C)(C(=O)[C@H](O)C(=C1C)C2(C)C)[C@@H](O)CC1OC[C@]13OC(C)=O)(C([2H])([2H])[2H])C([2H])([2H])[2H] (stereo partly drawn) [Docetaxel-d9, d9-Docetaxel]	–	–	–	–	–	–	–	–	–	–	−17.7	21	0
4-ARM-PEG20K-Butanoate-Linked d9-Docetaxel Conjugate [4ARM-PEG20K-BA-d9-DOC]	20	−0.6	2	–	–	−21.0	21	0	0	0	–	–	–
